Measured values published in PMC4001326, “DNA polymerase V activity is autoregulated by a novel intrinsic DNA-dependent ATPase”.
“And” between values parts separate entries of the source, which are not always exact repeats. Identical values can stand only once.

Columns and labels:
[1] = target: pol V Mut E38K/ΔC17 del17-17;RecA:E38K (Escherichia coli (pol V from strain RW644)) (UniProt P0AG11+P04152+P0A7G6); assay: fluorescence anisotropy; details: fluorescein-dT replacing T44 (from parent S5); 20 mM Tris-HCl pH 7.5, 25 mM Na glutamate, 8 mM MgCl2, 8 mM DTT, 4% glycerol, 0.1 mM EDTA, 37 C; 50 nM labeled hairpin; 500 uM ATP or ATPgS (titrations to …)
[2] = target: pol V Mut E38K/K72R K72R;RecA:E38K (Escherichia coli (pol V from strain RW644)) (UniProt P0AG11+P04152+P0A7G6); assay: fluorescence anisotropy; details: fluorescein-dT replacing T44 (from parent S5); 20 mM Tris-HCl pH 7.5, 25 mM Na glutamate, 8 mM MgCl2, 8 mM DTT, 4% glycerol, 0.1 mM EDTA, 37 C; 50 nM labeled hairpin; 500 uM ATP or ATPgS (titrations to …)
[3] = target: T1, pol V Mut WT (UmuD'2C-RecA-ATP) (Escherichia coli (pol V from strain …, UniProt P0AG11;P04152;P0A7G6 25-139;1-422;2-353)); assay: fluorescence anisotropy; 500 uM ATPgS; 20 mM Tris-HCl pH 7.5, 25 mM Na glutamate, 8 mM MgCl2, 8 mM DTT, 4% glycerol, 0.1 mM EDTA, 37 C; 50 nM labeled hairpin; 500 uM ATP or ATPgS (titrations to 750 uM); details: protein: recombinant, tags: His (pol V), chain copies: 2;1;1, label: fluorescein (internal dT), 18 bp stem, 5' overhang 12 nt
[4] = target: T1, pol V Mut WT (UmuD'2C-RecA-ATP); assay: fluorescence anisotropy; ATPgS titration, saturating at about 220 uM; 20 mM Tris-HCl pH 7.5, 25 mM Na glutamate, 8 mM MgCl2, 8 mM DTT, 4% glycerol, 0.1 mM EDTA, 37 C; 50 nM labeled hairpin; 500 uM ATP or ATPgS (titrations to 750 uM); details: protein: recombinant, tags: His (pol V), chain copies: 2;1;1, label: fluorescein (internal dT), 18 bp stem, 5' overhang 3 nt by name

With “CGAAACAGGAAAGCAGTTAGCGCATTCAGCTCATACTGCTGAATGCGCTAACTGC [Fluorescein 12 nt oh HP]” the Kd [1] was 312 nM and 469 nM and the Kd [2] was 920 nM.

B1: Fluorescein 12 nt oh HP (structured_DNA)
DNA: CGAAACAGGAAAGCAGTTAGCGCATTCAGCTCATACTGCTGAATGCGCTAACTGC
modifications: fluorescein-dT replacing T44 (from parent S5)
In the case of B1, the Kd [3] is reported as 876 ± 52 nM.

AGAGCAGTTAGCGCATTCAGCTCATACTGCTGAATGCGCTAACTGC (structured_DNA, fluorescein-dT replacing T17 (from parent S1)) [Fluorescein 3 nt oh HP]: binds [4].
